Tests used:
[1] = biological target: T1, ENAH EVH1 domain (monomeric, wild type) (human, UniProt Q03173 1-111 (mouse entry)); assay: BLI steady state, immobilised SUMO-PCARE-Dual, EVH1 domain in solution
T1 construct: ENAH residue numbers in the text count from the Met at position 25 of this entry; also called ENAH EVH1 WT; Mena EVH1 WT
Experimental: (§1) (C) Peptide binding and dissociation curves measured by BLI. Blue, orange, green, red, purple, and brown curves denote EVH1 concentrations in descending order.
(§2) All BLI experiments were performed with 2 replicates on an Octet Red96 instrument (ForteBio). […] The loaded tips were immersed in a solution of ENAH EVH1 domain at a relevant dilution series in BLI buffer at an orbital shake speed of 1000 rpm and run until the binding signal plateaued. ENAH-bound tips were subsequently placed into BLI buffer only for dissociation and run until the binding signal plateaued. K_D values were obtained through steady state analysis. […] The association phases were then fit to a one-phase binding model in Prism and the equilibrium steady-state binding signal values from that fit were plotted against ENAH concentration and fit to a single-site specific binding model in Prism to obtain dissociation constants. Errors reported are the standard deviation of two replicates.

[2] = biological target: T2, EVL EVH1 domain (wild type) (Mus musculus (Mouse), UniProt P70429 1-116); assay: as above
T2 construct: EVL numbering counts from the Met at position 25 of the entry; also called WT EVL EVH1 domain
Experimental: as §1, §2

[3] = biological target: T3, VASP EVH1 domain (Homo sapiens (Human), UniProt P50552 1-114); assay: as above
T3 construct: VASP numbering in the text counts from the Met at position 25 of the entry
Experimental: as §1, §2

[4] = biological target: T1, ENAH EVH1 domain (monomeric, wild type); assay: BLI dissociation curves
Experimental: as §1, §2

[5] = biological target: T1, ENAH EVH1 domain (monomeric, wild type); assay: BLI steady state, immobilised SUMO-peptide, ENAH EVH1 domain in solution
Experimental: as §1, §2

[6] = biological target: T1, ENAH EVH1 domain (monomeric, wild type); assay: BLI
Experimental: as §2

[7] = biological target: T1, ENAH EVH1 domain (monomeric, wild type); assay: BLI dissociation phase, immobilised SUMO-peptide, ENAH EVH1 domain in solution
[8] = biological target: T2, EVL EVH1 domain (wild type); assay: BLI steady state, immobilised SUMO-PCARE B, EVH1 domain in solution
[9] = biological target: T3, VASP EVH1 domain; assay: as above
[10] = biological target: T4, EVL EVH1 swapped (residue swapped) (Homo sapiens (Human), UniProt Q9UI08 1-109); assay: BLI, EVL swapped EVH1 domain in solution
T4 construct: also called EVL swapped; residue-swapped EVL EVH1 domain

[11] = biological target: T2, EVL EVH1 domain (wild type); assay: BLI steady state, immobilised SUMO-PCARE B, EVH1 domain in solution; remark: listed apart in the source

T2 sequence (P70429 other isoform, or with tags, fused parts or gaps limits assumed): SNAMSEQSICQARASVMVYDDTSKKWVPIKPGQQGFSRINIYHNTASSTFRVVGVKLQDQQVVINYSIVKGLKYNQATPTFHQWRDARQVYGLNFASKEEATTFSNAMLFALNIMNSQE
T1 sequence (Q03173 other isoform, or with tags, fused parts or gaps limits assumed): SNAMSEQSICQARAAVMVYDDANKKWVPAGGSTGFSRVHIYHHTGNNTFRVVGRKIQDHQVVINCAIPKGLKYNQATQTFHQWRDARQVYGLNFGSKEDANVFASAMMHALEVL
T3 sequence (P50552 other isoform, or with tags, fused parts or gaps limits assumed): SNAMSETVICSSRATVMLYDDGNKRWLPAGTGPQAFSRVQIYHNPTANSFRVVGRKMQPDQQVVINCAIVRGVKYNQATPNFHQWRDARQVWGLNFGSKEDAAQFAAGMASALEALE
T4 sequence (Q9UI08 other isoform, or with tags, fused parts or gaps limits assumed): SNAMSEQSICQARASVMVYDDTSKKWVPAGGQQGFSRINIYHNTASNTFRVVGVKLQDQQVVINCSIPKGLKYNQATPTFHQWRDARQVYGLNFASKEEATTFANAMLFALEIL

Row | Binder | Kd [1] | Kd [2] | Kd [3] | fold slower dissociation than dual-motif peptide LPP [4] | Kd [5] | Kd [6] | fold tighter binding than PCARE B [6] | koff [7] | Kd [8] | Kd [9] | Kd [10] | Kd [11]
1 | PCARE-Dual peptide (designed binder, biotinylated (BAP tag), Engineered peptide, tested as a SUMO fusion in BLI) peptide: MAGGLNDIFEAQKIEWHEDTGGSSHHHHHHGSGSGSDSEVNQEAKPEVKPEVKPETHINLKVSDGSSEIFFKIKKTTPLRRLMEAFAKRQGKEMDSLTFLYDGIEIQADQTPEDLDMEDNDIIEAHREQIGGSGSGNLEHLPPPPMEVLMDKSFASLESGSGSPPPPPF | 48 nM | 21 µM | 28 µM | ~100 fold | 48 nM | 50 nM | ~7 fold | 0.045 s⁻¹ | – | – | – | –
2 | PCARE B (PCARE826-848) (biotinylated (BAP tag)) peptide: MAGGLNDIFEAQKIEWHEDTGGSSHHHHHHGSGSGSDSEVNQEAKPEVKPEVKPETHINLKVSDGSSEIFFKIKKTTPLRRLMEAFAKRQGKEMDSLTFLYDGIEIQADQTPEDLDMEDNDIIEAHREQIGGSGSGNLEHLPPPPMEVLMDKSFASLES | – | – | – | – | – | – | – | – | 22 µM | 42 µM | 350 nM | 22 µM
